# Results: the supplement of paper PMC9112550, “Optimization of the antimicrobial peptide Bac7 by deep mutational scanning” (BMC Biology, 2022)
# Tested on: Escherichia coli TOP10
# Assay: shrunken log2 fold change of peptide-encoding DNA abundance (4.5 h post-induction vs induction); higher = less antimicrobial activity (less host growth inhibition)
# Conditions: time post-induction: 4.5 h; library: site-saturation at positions 5, 18, 19, 20
# 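Note: peptides expressed intracellularly from a pBAD plasmid library in pooled LB shake-flask culture, induced with 0.3% L-arabinose, DNA abundance read by NGS, three biological replicates, DESeq2 with apeglm shrinkage.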
row,Sequence,shrunken log2 fold change
1,RRIRCRPPRLPRPRPRPEKYPRP,-0.209
2,RRIRYRPPRLPRPRPRPKYSPRP,-0.274
3,RRIRQRPPRLPRPRPRPNLIPRP,-0.556
4,RRIRWRPPRLPRPRPRPCTAPRP,0.119
5,RRIRARPPRLPRPRPRPEVFPRP,0.401
6,RRIRCRPPRLPRPRPRPKMKPRP,-0.269
7,RRIRHRPPRLPRPRPRPNNLPRP,-0.596
8,RRIRIRPPRLPRPRPRPNAMPRP,-0.0812
9,RRIRARPPRLPRPRPRPGLDPRP,0.419
10,RRIRTRPPRLPRPRPRPGKNPRP,-0.24
11,RRIRNRPPRLPRPRPRPKRVPRP,0.148
12,RRIRLRPPRLPRPRPRPPHFPRP,0.437
13,RRIRTRPPRLPRPRPRPATSPRP,-0.12
14,RRIRYRPPRLPRPRPRPAKEPRP,0.0142
15,RRIRYRPPRLPRPRPRPKIAPRP,-0.404
16,RRIRPRPPRLPRPRPRPQIVPRP,-0.594
17,RRIRHRPPRLPRPRPRPPKDPRP,0.105
18,RRIRMRPPRLPRPRPRPYCTPRP,-0.00702
19,RRIRERPPRLPRPRPRPFSIPRP,0.00587
20,RRIRLRPPRLPRPRPRPGNVPRP,0.0636
21,RRIRERPPRLPRPRPRPEWAPRP,0.103
22,RRIRLRPPRLPRPRPRPLGRPRP,0.0726
23,RRIRQRPPRLPRPRPRPLHPPRP,-0.0917
24,RRIRPRPPRLPRPRPRPDGNPRP,0.0274
25,RRIRPRPPRLPRPRPRPINAPRP,-0.292

row,Sequence,shrunken log2 fold change
1,RRIRHRPPRLPRPRPRPLCGPRP,-0.302
2,RRIRWRPPRLPRPRPRPYHYPRP,0.0463
3,RRIRWRPPRLPRPRPRPPAYPRP,-0.0328
4,RRIRRRPPRLPRPRPRPMGPPRP,0.135
5,RRIRYRPPRLPRPRPRPHIWPRP,-0.272
6,RRIRSRPPRLPRPRPRPNVCPRP,-0.0635
7,RRIRCRPPRLPRPRPRPMTNPRP,-0.434
8,RRIRSRPPRLPRPRPRPIQDPRP,0.00805
9,RRIRARPPRLPRPRPRPEGDPRP,1.39
10,RRIRFRPPRLPRPRPRPGGDPRP,0.37
11,RRIRNRPPRLPRPRPRPFSPPRP,-0.148
12,RRIRIRPPRLPRPRPRPMPCPRP,0.00854
13,RRIRRRPPRLPRPRPRPKCYPRP,0.00463
14,RRIRPRPPRLPRPRPRPFAMPRP,0.0938
15,RRIRFRPPRLPRPRPRPCFQPRP,-0.227
16,RRIRPRPPRLPRPRPRPIHYPRP,-0.967
17,RRIRCRPPRLPRPRPRPCVDPRP,-0.164
18,RRIRVRPPRLPRPRPRPWDYPRP,-0.0898
19,RRIRSRPPRLPRPRPRPNVYPRP,-0.257
20,RRIRSRPPRLPRPRPRPSAVPRP,0.091
21,RRIRSRPPRLPRPRPRPWPEPRP,0.519
22,RRIRVRPPRLPRPRPRPKLNPRP,-0.212
23,RRIRHRPPRLPRPRPRPYQSPRP,0.0306
24,RRIRQRPPRLPRPRPRPGGTPRP,0.11
25,RRIRGRPPRLPRPRPRPLVCPRP,0.584

row,Sequence,shrunken log2 fold change
1,RRIRYRPPRLPRPRPRPPFWPRP,0.395
2,RRIRARPPRLPRPRPRPVRSPRP,0.345
3,RRIRFRPPRLPRPRPRPTNSPRP,-0.271
4,RRIRKRPPRLPRPRPRPFWYPRP,0.0709
5,RRIRERPPRLPRPRPRPLVYPRP,-0.309
6,RRIRKRPPRLPRPRPRPFPGPRP,-0.0018
7,RRIRARPPRLPRPRPRPQYMPRP,-0.112
8,RRIRWRPPRLPRPRPRPNSPPRP,-0.255
9,RRIRFRPPRLPRPRPRPHQDPRP,-0.0339
10,RRIRNRPPRLPRPRPRPQYWPRP,-0.37
11,RRIRTRPPRLPRPRPRPFLAPRP,-0.0751
12,RRIRYRPPRLPRPRPRPGSGPRP,-0.0839
13,RRIRKRPPRLPRPRPRPHEFPRP,-0.0156
14,RRIRDRPPRLPRPRPRPVSTPRP,0.0725
15,RRIRWRPPRLPRPRPRPMEKPRP,0.0685
16,RRIRWRPPRLPRPRPRPNEHPRP,-0.113
17,RRIRCRPPRLPRPRPRPQGWPRP,-0.0139
18,RRIRYRPPRLPRPRPRPKNCPRP,-0.0167
19,RRIRNRPPRLPRPRPRPMRFPRP,-0.00968
20,RRIRVRPPRLPRPRPRPWMYPRP,-0.225
21,RRIRVRPPRLPRPRPRPLPNPRP,-0.0957
22,RRIRNRPPRLPRPRPRPFQYPRP,-0.0242
23,RRIRARPPRLPRPRPRPYVYPRP,-0.182
24,RRIRPRPPRLPRPRPRPLNSPRP,-0.262
25,RRIRYRPPRLPRPRPRPPTTPRP,-0.165

row,Sequence,shrunken log2 fold change
1,RRIRSRPPRLPRPRPRPQAFPRP,-0.114
2,RRIRPRPPRLPRPRPRPWVKPRP,-0.0754
3,RRIRCRPPRLPRPRPRPDEMPRP,-0.0197
4,RRIRHRPPRLPRPRPRPHCNPRP,-0.158
5,RRIRQRPPRLPRPRPRPGFEPRP,0.809
6,RRIRMRPPRLPRPRPRPIDMPRP,-0.0621
7,RRIRQRPPRLPRPRPRPMYIPRP,-0.0435
8,RRIRYRPPRLPRPRPRPSWNPRP,-1.04
9,RRIRQRPPRLPRPRPRPTFFPRP,-0.0813
10,RRIRLRPPRLPRPRPRPSYVPRP,-0.13
11,RRIRVRPPRLPRPRPRPRILPRP,-0.412
12,RRIRGRPPRLPRPRPRPQALPRP,0.135
13,RRIRNRPPRLPRPRPRPQEKPRP,-0.198
14,RRIRYRPPRLPRPRPRPGGDPRP,0.137
15,RRIRRRPPRLPRPRPRPKQRPRP,0.288
16,RRIRFRPPRLPRPRPRPIEYPRP,-0.00801
17,RRIRWRPPRLPRPRPRPNMTPRP,0.0683
18,RRIRWRPPRLPRPRPRPANWPRP,0.273
19,RRIRERPPRLPRPRPRPPTEPRP,0.0778
20,RRIRYRPPRLPRPRPRPCLMPRP,-0.225
21,RRIRHRPPRLPRPRPRPITYPRP,-0.184
22,RRIRWRPPRLPRPRPRPWSPPRP,-0.0542
23,RRIRVRPPRLPRPRPRPNMYPRP,0.0145
24,RRIRCRPPRLPRPRPRPILKPRP,-0.263
25,RRIRKRPPRLPRPRPRPEVMPRP,0.148

row,Sequence,shrunken log2 fold change
1,RRIRWRPPRLPRPRPRPAATPRP,2.26
2,RRIRIRPPRLPRPRPRPDGDPRP,-0.176
3,RRIRSRPPRLPRPRPRPLSTPRP,-0.369
4,RRIRTRPPRLPRPRPRPWFNPRP,-0.471
5,RRIRKRPPRLPRPRPRPAHWPRP,0.719
6,RRIRTRPPRLPRPRPRPHNKPRP,-0.702
7,RRIRVRPPRLPRPRPRPKYMPRP,-0.433
8,RRIRDRPPRLPRPRPRPSVTPRP,0.0709
9,RRIRSRPPRLPRPRPRPKQHPRP,0.235
10,RRIRARPPRLPRPRPRPFPAPRP,0.439
11,RRIRNRPPRLPRPRPRPKFFPRP,-0.298
12,RRIRGRPPRLPRPRPRPPLYPRP,0.459
13,RRIRSRPPRLPRPRPRPWKKPRP,-0.162
14,RRIRPRPPRLPRPRPRPMRMPRP,0.268
15,RRIRNRPPRLPRPRPRPYTSPRP,-0.325
16,RRIRTRPPRLPRPRPRPHEWPRP,0.00742
17,RRIRHRPPRLPRPRPRPYDAPRP,-0.271
18,RRIRWRPPRLPRPRPRPGFHPRP,-0.0866
19,RRIRMRPPRLPRPRPRPALAPRP,1.08
20,RRIRHRPPRLPRPRPRPHDNPRP,-0.483
21,RRIRNRPPRLPRPRPRPCILPRP,-0.119
22,RRIRLRPPRLPRPRPRPHNFPRP,-0.115
23,RRIRQRPPRLPRPRPRPTQMPRP,0.0693
24,RRIRVRPPRLPRPRPRPQKYPRP,-0.783
25,RRIRVRPPRLPRPRPRPELVPRP,0.14

row,Sequence,shrunken log2 fold change
1,RRIRMRPPRLPRPRPRPQCAPRP,0.645
2,RRIRARPPRLPRPRPRPIIAPRP,0.00311
3,RRIRPRPPRLPRPRPRPIRCPRP,0.125
4,RRIRVRPPRLPRPRPRPKNAPRP,-0.197
5,RRIRIRPPRLPRPRPRPMTMPRP,-0.01
6,RRIRYRPPRLPRPRPRPLWSPRP,0.0381
7,RRIRARPPRLPRPRPRPPWKPRP,0.429
8,RRIRTRPPRLPRPRPRPKWFPRP,-0.0479
9,RRIRARPPRLPRPRPRPGWQPRP,0.0839
10,RRIRARPPRLPRPRPRPCCMPRP,-0.0671
11,RRIRLRPPRLPRPRPRPRLTPRP,0.143
12,RRIRWRPPRLPRPRPRPGYWPRP,-0.00394
13,RRIRFRPPRLPRPRPRPIIPPRP,-0.677
14,RRIRHRPPRLPRPRPRPICNPRP,-0.422
15,RRIRKRPPRLPRPRPRPEMDPRP,0.0842
16,RRIRTRPPRLPRPRPRPMTVPRP,-0.294
17,RRIRWRPPRLPRPRPRPNYGPRP,-0.281
18,RRIRSRPPRLPRPRPRPHEWPRP,0.147
19,RRIRIRPPRLPRPRPRPHWDPRP,-0.248
20,RRIRQRPPRLPRPRPRPTNTPRP,-0.216
21,RRIRMRPPRLPRPRPRPEYEPRP,0.644
22,RRIRTRPPRLPRPRPRPLFDPRP,-0.451
23,RRIRHRPPRLPRPRPRPVAPPRP,0.222
24,RRIRSRPPRLPRPRPRPYSIPRP,-0.376
25,RRIRRRPPRLPRPRPRPGHHPRP,-0.139
